The labels stand for the following.
B1: FpL_C3KX 7e (designed binder)
chain: ETPGESAEEVTIRVNLIFADGRIQTAEFIGTFEEATAEAYAYANLLARDYGEFTADLEDGGYTINIRFVGHHHHHH
B2: FpL_C3 5c (designed binder)
chain: ETPEEPKEEVTIKVNLIFADGKIQTAEFKGTFEEATAKAYAYAGLLAKVYGVYTADLEDGGYTINIKFAGHHHHHH
B3: FpL_C3 5d (designed binder)
chain: B2 chain with Y50S
B4: FpL_C3 2a (designed binder)
chain: B2 chain with G44N, V49E, V52G, Y62N
B5: FpL_C3 4f (designed binder)
chain: B2 chain with G44D, V49E
B6: FpL_C3KR (designed binder)
chain: ETPEEPREEVTIRVNLIFADGRIQTAEFRGTFEEATARAYAYANLLARENGEYTADLEDGGNTINIRFAGHHHHHH
B7: FpL_C3KX_5e_P6S (designed binder)
chain: B1 chain with G4E, E38R, E52G, V69A
B8: FpL_C3KX 5e (designed binder)
chain: B1 chain with G4E, S6P, E38R, E52G, V69A
B9: FpL_C3KX 7e amino acid substitution mutant Glu34Val (designed binder)
chain: B1 chain with E34V
B10: FpL_C3KX 7c (designed binder)
chain: B1 chain with S6P, E38R, A47R, E52D, V69A
B11: FpL_C3KX 6a (designed binder)
chain: B1 chain with S6P, E38R, E52D, V69A
B12: FpL_C3KX 7b (designed binder)
chain: B1 chain with S6P, E27R, E38R, E52D, V69A
B13: FpL_C4KR (designed binder)
chain: B6 chain with I23T, R38E, A41R, N44D, E49V, N62Y
B14: FpL_C3KX 3a (designed binder)
chain: B6 chain with R7A, R22Q, R29I, N50Y, E52G, N62Y
B15: FpL_C3KX 4h (designed binder)
chain: B6 chain with R7A, R22Q, R29I, E49D, N50Y, E52G, N62Y

Where a chain is given by its changes, count along the chain named.

The first assay has as its target human antibody (gamma globulin preparation, manufactured by The Chemo-Sero-Therapeutic Research Institute) (human). As to the kind of experiment: ELISA; human gamma globulin immobilised; acid treatment 50 mM buffer pH 3.2, 25 C, 5 min; elution rate = 1 - remaining binding activity. For orientation: ELISA stands for enzyme-linked immunosorbent assay.
B1 registered an Elution rate [%] of 46%.

The target is the same in another assay. As to the kind of experiment: ELISA; human gamma globulin immobilised, alkali-untreated protein extract, Anti-6-His detection.
B2: the Antibody-binding activity (absorbance) (absorbance (450 nm)) was found to be 0.74.

Regarding B3, the Antibody-binding activity (absorbance) (absorbance (450 nm)) is 0.46.

With B4, the Antibody-binding activity (absorbance) (absorbance (450 nm)) is 0.72.

B5 came in with an Antibody-binding activity (absorbance) (absorbance (450 nm)) of 0.9.

A further assay has as its target human CTLA4 antibody containing human κ light chain subgroup 3 (Vκ3) (manufactured by R&D Systems). As to the kind of experiment: ELISA; antibody immobilised, binding protein added, Anti-6-His detection (method of Example 21(4)).
Turning to B6, the Polyclonal antibody-binding activity (abs@450 nm) stood at 0.07 abs@450 nm.

Regarding B7, the Polyclonal antibody-binding activity (abs@450 nm) was 0.78 abs@450 nm.

Consider B8, for which the Polyclonal antibody-binding activity (abs@450 nm) was 0.06 abs@450 nm.

Another assay concerns the target Herceptin containing human κ light chain subgroup 1 (Vκ1) (manufactured by Chugai Pharmaceutical Co., Ltd.). The assay is described as above.
B6 displayed a Polyclonal antibody-binding activity (abs@450 nm) of 0.86 abs@450 nm.

Molecule B7 gave a Polyclonal antibody-binding activity (abs@450 nm) of 0.98 abs@450 nm.

For the molecule B8, the Polyclonal antibody-binding activity (abs@450 nm) is 0.96 abs@450 nm.

The next assay has as its target human antibody (gamma globulin preparation, manufactured by The Chemo-Sero-Therapeutic Research Institute) (human). As to the kind of experiment: ELISA; human gamma globulin immobilised; acid treatment 50 mM buffer pH 3.2, 25 C, 5 min; elution rate = 1 - remaining binding activity. The source holds these as a separate data set.
Molecule B9 showed an Elution rate [%] of 29%.

In turn, B1 returned an Elution rate [%] of 26%.

A further assay addresses Herceptin containing human κ light chain subgroup 1 (Vκ1) (manufactured by Chugai Pharmaceutical Co., Ltd.). As to the kind of experiment: ELISA; Herceptin immobilised, binding protein at 2 ug/mL, dissociation with 0.05 M citric acid pH 2.4 for 2 min, absorbance ratio to wells without dissociation.
For B10, the Elution rate [%] turned out to be 59%.

B11: the Elution rate [%] turned out to be 25%.

In the case of B12, the Elution rate [%] was 61%.

In the next assay the target is human CTLA4 antibody containing human κ light chain subgroup 3 (Vκ3) (manufactured by R&D Systems). As to the kind of experiment: ELISA; antibody immobilised (10 ug/mL), binding protein at 50 ug/mL, Anti-6-His detection, blank-subtracted.
B13 showed a Polyclonal antibody-binding activity (abs@450 nm) of 0.66 abs@450 nm.

The molecule B6 gave a Polyclonal antibody-binding activity (abs@450 nm) of 0.32 abs@450 nm.

Regarding B14, the Polyclonal antibody-binding activity (abs@450 nm) came out at 0.21 abs@450 nm.

On to B15, for which the Polyclonal antibody-binding activity (abs@450 nm) was 0.63 abs@450 nm.

The target of the next assay is Herceptin containing human κ light chain subgroup 1 (Vκ1) (manufactured by Chugai Pharmaceutical Co., Ltd.). The assay is described as above.
B13 returned a Polyclonal antibody-binding activity (abs@450 nm) of 0.65 abs@450 nm.

Take B6: the Polyclonal antibody-binding activity (abs@450 nm) was 0.92 abs@450 nm.

B14 came in with a Polyclonal antibody-binding activity (abs@450 nm) of 0.87 abs@450 nm.

B15 came in with a Polyclonal antibody-binding activity (abs@450 nm) of 0.69 abs@450 nm.

The next assay has as its target human PCSK9 antibody containing human κ light chain subgroup 4 (Vκ4) (manufactured by R&D Systems). The assay is described as above.
With B13, the Polyclonal antibody-binding activity (abs@450 nm) worked out at 0.55 abs@450 nm.

As for B6, the Polyclonal antibody-binding activity (abs@450 nm) is 0.77 abs@450 nm.

Consider B14, for which the Polyclonal antibody-binding activity (abs@450 nm) amounted to 0.76 abs@450 nm.

B15: the Polyclonal antibody-binding activity (abs@450 nm) was 0.62 abs@450 nm.

The next assay addresses human PDGF R alpha antibody containing human κ light chain subgroup 3 (Vκ3) (manufactured by R&D Systems). The assay is described as above.
B13 came in with a Polyclonal antibody-binding activity (abs@450 nm) of 0.59 abs@450 nm.

The molecule B6 registered a Polyclonal antibody-binding activity (abs@450 nm) of 0.21 abs@450 nm.

As for B14, the Polyclonal antibody-binding activity (abs@450 nm) came out at 0.12 abs@450 nm.

B15 came in with a Polyclonal antibody-binding activity (abs@450 nm) of 0.56 abs@450 nm.

Another assay has as its target immunoglobulin immobilized on IgG Sepharose 6 Fast Flow (manufactured by Cytiva). As to the kind of experiment: IgG Sepharose 6 Fast Flow column; linear gradient 0.1 M citrate pH 6.5 to pH 2.2; pH at the peak of the eluted binding protein.
B13 had an Elution pH of 2.8 pH.

The record behind these values is patent publication US20250002543A1.
